Results from publication PMC4095729 (Alzheimer's Research & Therapy, 2014).

Target: T1, Aβ1-7 peptide (Homo sapiens (deposited entity))
T1 construct: amyloid beta peptide (Aβ), cut from amyloid precursor protein (APP), residues 1-7; Additional file 1 names the peptide Aβ1-6; also called amyloid-β1-7; Aβ residues 1–7
T1 chain: DAEFRHD
Assay: crystal structure; 3D6 Fab co-crystallised with Aβ1-7 or Aβ1-40 peptide, crystals grown at 22 °C; the Aβ1-40 crystals in 200 mM Zn2+; data at 100 K
Settings: both partners purified

binding result: binds
B1: Recombinant 3D6 Fab (Fab, V domains shown)
VH: EVKLVESGGGLVKPGASLKLSCAASGFTFSNYGMSWVRQNSDKRLEWVASIRSGGGRTYYSDNVKGRFTISRENAKNTLYLQMSSLKSEDTALYYCVRYDHYSGSSDYWGQGTTVTVSS
VL: not shown
notes: also called Fab 3D6
